Reference: article PMC10249358, “Elucidation of Short Linear Motif-Based Interactions of the FERM Domains of Ezrin, Radixin, Moesin, and Merlin” (Biochemistry, 2023)
No end group written: not given here. *: point of attachment. FITC = O=C1OC2(c3ccc(O)cc3Oc3cc(O)ccc32)c2ccc(NC(=S)*)cc21

Columns and labels:
Conditions in all cases: both partners purified
[1] = target: T1, radixin FERM domain (as used in FP) (human, UniProt P35241 5-295); assay: fluorescence polarisation; direct binding: 5 nM FITC-labeled probe peptide titrated with FERM domain; 20 mM HEPES pH 7.4, 150 mM NaCl, 0.05% Tween-20, 3 mM DTT; quadratic equation for 1:1 binding
T1 construct: human radixin FERM domain, amino acids 5-295, synthetic gene in pETM33; source: E. coli BL21(DE3), purified (GSH sepharose)

[2] = target: T2, merlin FERM domain (human, UniProt P35240 22-312); assay: as above
T2 construct: human merlin (NF2) FERM domain, amino acids 22-312, synthetic gene in pETM33; source: E. coli BL21(DE3), purified (GSH sepharose, HRV3C cleavage, reverse Ni-IMAC); not shown: His, N-terminal, cleaved; GST, N-terminal, cleaved
T2 sequence (looked up): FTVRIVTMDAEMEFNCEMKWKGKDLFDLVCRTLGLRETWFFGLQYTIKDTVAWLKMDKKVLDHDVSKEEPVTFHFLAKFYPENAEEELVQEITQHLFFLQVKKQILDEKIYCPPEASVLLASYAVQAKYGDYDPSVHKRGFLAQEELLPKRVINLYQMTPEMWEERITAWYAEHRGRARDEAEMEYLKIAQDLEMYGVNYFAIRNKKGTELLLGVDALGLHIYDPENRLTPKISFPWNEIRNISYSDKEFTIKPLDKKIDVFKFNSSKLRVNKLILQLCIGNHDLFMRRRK

[3] = target: T3, moesin FERM domain (UniProt P26038 2-295); assay: fluorescence polarisation; competition: precomplex of moesin FERM and FITC-ZNF622 probe, titrated with unlabeled peptide; constants printed as KD′; FP buffer (for HIF1A the text names FITC-NOP53 as probe, the table's footnote FITC-ZNF622)
T3 construct: moesin FERM domain from pGEX4T Moesin FERM; also called WT moesin; source: E. coli BL21(DE3), purified (GSH sepharose, thrombin cleavage on beads, benzamidine column, gel filtration); not shown: GST, N-terminal, cleaved

[4] = target: T3, moesin FERM domain; assay: fluorescence polarisation; competition: precomplex of FERM domain (2 x KD) and FITC-KIRREL3(637–652) probe, titrated with unlabeled peptide; constants printed as KD′; FP buffer
[5] = target: T1, radixin FERM domain (as used in FP); assay: as above
[6] = target: T4, ezrin FERM domain (as used in FP) (UniProt P15311 2-296); assay: as above
T4 construct: ezrin FERM domain from pGEX4T1 Ezrin FERM; source: E. coli BL21(DE3), purified (GSH sepharose)

[7] = target: T5, Moesin FERM M285A/H288A (human, UniProt P26038 2-295, M285A | H288A); assay: fluorescence polarisation; direct binding: FITC-labeled probe peptide (5 nM) titrated with a dilution series of moesin FERM domain; 20 mM HEPES, pH 7.4, 150 mM NaCl, 0.05% Tween-20, 3 mM DTT; quadratic equation for 1:1 binding
T5 construct: moesin (P26038) FERM domain from pGEX4T Moesin FERM (Addgene plasmid # 1163); also called moesin FERM domain (M285A and H288A); moesin FERM M285/H288A; source: E. coli BL21(DE3), purified (GSH sepharose, thrombin cleavage, HiTrap benzamidine)

[8] = target: T6, Moesin FERM K211A/I238A (human, UniProt P26038 2-295, K211A | I238A); assay: as above
T6 construct: moesin (P26038) FERM domain from pGEX4T Moesin FERM (Addgene plasmid # 1163); also called moesin K211A/I238A; double mutant moesin FERM K211A/I238A; source: E. coli BL21(DE3), purified (GSH sepharose, thrombin cleavage, HiTrap benzamidine)

[9] = target: T7, moesin FERM K211A/I238A (UniProt P26038 2-295, K211A | I238A); assay: fluorescence polarisation; direct binding: 5 nM FITC-labeled probe peptide titrated with FERM domain; 20 mM HEPES pH 7.4, 150 mM NaCl, 0.05% Tween-20, 3 mM DTT; quadratic equation for 1:1 binding
T7 construct: moesin FERM domain from pGEX4T Moesin FERM, double mutant; tag removal is told for moesin FERM in FP in general; also called moesin K211A/I238A; source: E. coli BL21(DE3), purified; not shown: GST, N-terminal, cleaved

[10] = target: T8, moesin FERM M285A/H288A (UniProt P26038 2-295, M285A | H288A); assay: as above
T8 construct: moesin FERM domain from pGEX4T Moesin FERM, double mutant; tag removal is told for moesin FERM in FP in general; also called moesin FERM M285/H288A; source: E. coli BL21(DE3), purified; not shown: GST, N-terminal, cleaved
T8 sequence (P26038 2-295 M285A/H288A): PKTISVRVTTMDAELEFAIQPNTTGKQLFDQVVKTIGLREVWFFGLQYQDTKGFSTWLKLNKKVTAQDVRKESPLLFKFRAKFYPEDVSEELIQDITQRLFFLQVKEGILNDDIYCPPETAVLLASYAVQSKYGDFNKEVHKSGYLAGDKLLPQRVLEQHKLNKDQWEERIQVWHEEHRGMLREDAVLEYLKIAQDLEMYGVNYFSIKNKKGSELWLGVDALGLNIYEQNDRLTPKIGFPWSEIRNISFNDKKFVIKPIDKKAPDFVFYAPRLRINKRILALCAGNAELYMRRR

T3 sequence (P26038 2-295): as the sequence (P26038 2-295 M285A/H288A) above, with A284M, A287H counted along it
T1 sequence (P35241 5-295): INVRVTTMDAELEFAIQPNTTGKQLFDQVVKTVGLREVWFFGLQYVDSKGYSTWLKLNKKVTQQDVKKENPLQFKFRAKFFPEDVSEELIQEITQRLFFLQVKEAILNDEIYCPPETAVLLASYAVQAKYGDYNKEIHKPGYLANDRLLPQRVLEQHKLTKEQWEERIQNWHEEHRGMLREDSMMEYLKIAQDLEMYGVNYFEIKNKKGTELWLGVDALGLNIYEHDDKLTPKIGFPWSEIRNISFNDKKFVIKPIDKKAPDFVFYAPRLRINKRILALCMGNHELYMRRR
T4 sequence (P15311 2-296): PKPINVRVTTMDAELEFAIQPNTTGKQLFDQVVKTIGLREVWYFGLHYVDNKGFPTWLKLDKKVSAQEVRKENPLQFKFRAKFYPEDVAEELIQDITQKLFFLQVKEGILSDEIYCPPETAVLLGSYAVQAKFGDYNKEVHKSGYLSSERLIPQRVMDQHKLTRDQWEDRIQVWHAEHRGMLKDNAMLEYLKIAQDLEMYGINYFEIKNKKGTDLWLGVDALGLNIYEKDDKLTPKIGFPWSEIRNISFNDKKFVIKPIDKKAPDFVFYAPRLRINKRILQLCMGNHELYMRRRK
T6 sequence (P26038 2-295 K211A/I238A): as the sequence (P26038 2-295 M285A/H288A) above, with K210A, I237A, A284M, A287H counted along it
T5 sequence (P26038 2-295 M285A/H288A): as the sequence (P26038 2-295 M285A/H288A) above
T7 sequence (P26038 2-295 K211A/I238A): as the sequence (P26038 2-295 M285A/H288A) above, with K210A, I237A, A284M, A287H counted along it

YYSVNTFKEHHSTPTI (peptide, UniProt Q8IZU9 637-652, looked up, also: FITC label, position not given here, source: synthetic peptide (GeneCust)) [FITC-KIRREL3(637–652) peptide]
binding result [1]: binds

B1: FITC-ZNF622(341–356) peptide (peptide, UniProt Q969S3 341-356, looked up)
peptide: LEFADFYDFRSSYPDH
modifications: not fully specified (N-terminus); also: FITC label (position not given here)
notes: also called FITC-ZNZ622; source: synthetic peptide (GeneCust)
binding result [2]: binds | binding result [1]: binds

B2: HIF1A(37–52) peptide (peptide)
peptide: FYELAHQLPLPHNVSS
notes: HIF1A, human, residues 37-52; source: synthetic peptide (GeneCust)
Kd [3]: 3 ± 0.4 µM

B3: ICAM3(516–531) peptide (peptide)
peptide: SGSYHVREESTYLPLT
notes: ICAM3, human, residues 516-531; source: synthetic peptide (GeneCust)
Kd [4]: 113 ± 3 µM

B4: PDCD6IP(853–868) peptide (peptide)
peptide: SYPFPQPPQQSYYPQQ
notes: PDCD6IP, human, residues 853-868; source: synthetic peptide (GeneCust)
Kd [4]: 35.2 ± 0.2 µM

B5: BOC(1000–1015) peptide (peptide)
peptide: LYTLPDDSTHQLLQPH
notes: BOC, human, residues 1000-1015; source: synthetic peptide (GeneCust)
Kd [4]: 18 ± 1 µM | Kd [5]: 17 ± 2 µM | Kd [6]: 8 ± 0.1 µM

B6: RIMS1(1405–1420) peptide (peptide)
peptide: MYTLEHNDGSQSDTAV
notes: RIMS1, human, residues 1405-1420; source: synthetic peptide (GeneCust)
Kd [4]: 564 ± 5 µM

B7: GCM2(274–289) peptide (peptide)
peptide: SYELANPGYTNSSPYP
notes: GCM2, human, residues 274-289; source: synthetic peptide (GeneCust)
Kd [4]: 38 ± 3 µM | Kd [5]: 85 ± 3 µM | Kd [6]: 205 ± 11 µM

B8: FITC-EBP50 343-358 peptide (peptide)
peptide: {FITC}-APQMDWSKKNELFSNL-OH
modifications: not fully specified
notes: also called NHERF1; source: synthetic peptide (GeneCust)
Kd [7]: 3.1 ± 0.2 µM | Kd [8]: 114 ± 7 µM

YYSVNTFKEHHSTPTI (also: FITC label, position not given here, source: synthetic peptide (GeneCust)) [FITC-KIRREL3 637-652 peptide]
Kd [7]: 0.84 ± 0.05 µM | Kd [8]: 0.17 ± 0.02 µM

B9: FITC-TBX4 428-443 peptide (peptide)
peptide: SYSVQTMETVPYQPFP
modifications: also: FITC label, position not given here
notes: TBX4 (T-box transcription factor TBX4), residues 428-443; source: synthetic peptide (GeneCust)
Kd [7]: 6.9 ± 0.4 µM | Kd [8]: 2.17 ± 0.31 µM

B10: FITC-LATS1 73-88 peptide (peptide)
peptide: THHKALQEIRNSLLPF
modifications: also: FITC label, position not given here
notes: LATS1, residues 73-88; source: synthetic peptide (GeneCust)
Kd [7]: 1.3 ± 0.1 µM | Kd [8]: 7.4 ± 0.5 µM

B11: FITC-NOP53 192-207 peptide (peptide)
peptide: FYDLWASDNPLDRPLV
modifications: also: FITC label, position not given here
notes: NOP53, residues 192-207; source: synthetic peptide (GeneCust)
Kd [7]: 2.2 ± 0.1 µM | Kd [8]: 42 ± 1 µM

LEFADFYDFRSSYPDH (also: FITC label, position not given here, source: synthetic peptide (GeneCust)) [FITC-ZNF622 341-356 peptide]
Kd [7]: 1.3 ± 0.1 µM | Kd [8]: 46 ± 2 µM

B12: RORA(185–200) peptide (peptide)
peptide: TYNISANGLTELHDDL
notes: RORA, human, residues 185-200; source: synthetic peptide (GeneCust)
Kd [4]: 134 ± 3 µM

B13: MISP(595–610) peptide (peptide)
peptide: ITGSYSVSESPFFSPI
notes: also called MISP3 peptide; source: synthetic peptide (GeneCust)
Kd [4]: 2.3 ± 0.1 µM

B14: FITC-FAM83G(111–126) peptide (peptide, UniProt A6ND36 111-126, looked up)
peptide: AEPLPSLEYWPQKSDR
modifications: also: FITC label (position not given here)
notes: FAM83G, human, residues 111-126; source: synthetic peptide (GeneCust)
binding result [1]: binds

B15: CAMK2B(13–28) peptide (peptide)
peptide: EYQLYEDIGKGAFSVV
notes: CAMK2B, human, residues 13-28; source: synthetic peptide (GeneCust)
Kd [4]: 96 ± 4 µM | Kd [5]: 6.8 ± 0.4 µM | Kd [6]: 26 ± 0.6 µM

B16: LATS1(421–436) peptide (peptide)
peptide: LYNISVPGLQTNWPQS
notes: LATS1, human, residues 421-436; source: synthetic peptide (GeneCust)
Kd [4]: 149 ± 5 µM

B17: RRBP1(1365–1380) peptide (peptide)
peptide: RAATRLQELLKTTQEQ
notes: RRBP1, human, residues 1365-1380; also called RRBP1 peptide; source: synthetic peptide (GeneCust)
Kd [2]: 9.7 ± 0.8 µM

B18: FITC-LATS1(73–88) peptide (peptide)
peptide: THHKALQEIRNSLLPF
modifications: also: FITC label, position not given here
notes: LATS1, human, residues 73-88; also called LATS(73–88); source: synthetic peptide (GeneCust)
binding result [2]: binds | binding result [1]: binds

B19: FITC-NOP53(192–207) peptide (peptide)
peptide: FYDLWASDNPLDRPLV
modifications: also: FITC label, position not given here
notes: NOP53, human, residues 192-207; source: synthetic peptide (GeneCust)
binding result [2]: binds | binding result [1]: binds

WSKKNELFSNL (peptide, UniProt O14745 348-358, looked up, also: FITC label, position not given here, source: synthetic peptide (GeneCust)) [FITC-EBP50(348–358) peptide]
binding result [2]: binds | binding result [9]: binds | binding result [10]: binds | binding result [1]: binds

B20: FITC-TBX4(428–443) peptide (peptide, UniProt P57082 428-443, looked up)
peptide: SYSVQTMETVPYQPFP
modifications: also: FITC label, position not given here
notes: T-box transcription factor TBX4, human, residues 428-443; source: synthetic peptide (GeneCust)
binding result [1]: binds
